Source: PMC12289001, “Functional characterization of DPP4 and FcRn as receptor and coreceptor for classical human astroviruses in Caco-2 cells” (PLOS Pathogens, 2025)

Biological target: T1, recombinant FcRn (FCGRT ectodomain with β-2-Microglobulin), expressed in CHO-S cells (human, UniProt P55899 24-297; P61769 21-119)
T1 construct: signal peptide in the construct; ectodomain of human FCGRT (FcRn heavy chain), Met1-Ser297, followed by a C-terminal thrombin cleavage site before the tags; β-2-Microglobulin, Met1-Met119; also called neonatal Fc receptor; source: CHO-S cells, electroporated with both plasmids, purified from the media (StrepTrap XT)
T1 sequence (P55899 24-297, chain 1 of 2): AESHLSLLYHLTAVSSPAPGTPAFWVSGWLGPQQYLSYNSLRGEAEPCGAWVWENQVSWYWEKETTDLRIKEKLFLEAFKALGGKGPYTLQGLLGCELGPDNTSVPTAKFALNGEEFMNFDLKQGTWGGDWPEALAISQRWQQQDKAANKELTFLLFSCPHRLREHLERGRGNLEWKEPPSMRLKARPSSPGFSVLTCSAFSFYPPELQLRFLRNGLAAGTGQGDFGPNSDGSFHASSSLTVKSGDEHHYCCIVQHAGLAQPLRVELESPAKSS
T1 sequence (P61769 21-119, chain 2 of 2): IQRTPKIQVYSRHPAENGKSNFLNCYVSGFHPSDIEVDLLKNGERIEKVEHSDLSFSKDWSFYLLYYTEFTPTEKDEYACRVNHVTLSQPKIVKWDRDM
Experiment: BLI; HIS1K biosensors loaded with HAstV-8 spike (6 μg/ml); FcRn in solution, 1,000 to 62.5 nM (mutant spike: 2,000 nM only); 0.1M sodium phosphate, 150 mM NaCl, 0.05% Tween-20, pH 7.0; 25 °C; 1:1 binding model; triplicate
Conditions: both partners purified

B1: recombinant WT HAstV-8 capsid spike (domain or fragment)
chain: GEQFRVLLTVGPPMAPNTANSQNWVNKTIVPPENQYTVKIGIDLEHYTTMQGFTPVESVSWYTADFQPSDEPSPIPGLYARVNNTKKADVYGVQQFKSSHTNNRHQITSVFLVRVTTSFQVINYTSYFIRGAESGSNVSNLKIRDQTYHTPLQFTQGKWYLLTSTVMHDGPTSSGWVWMNQELTNNIAYRVDPGMMYLITPPPAASQLYFELHTVLPQA
modifications: Wild-type spike. Limits are not printed: about 429-647 is taken by convention from related HAstV spike constructs and is close to the VP25 feature 424-648. The C-terminal thrombin site and His10 tag …
Kd: ~280 nM
